Results taken from patent publication US20250346668A1 (GENOR BIOPHARMA, published 2025).

Molecular target: T1, human CD3e/g antigen (ACRO, catalog number CDG-H52W5) (human, UniProt P07766 23-126; P09693 23-116)
T1 construct: Bought reagent used as the Biacore analyte; also called hCD3e/g
Assay: SPR (Biacore 8K), antibody captured via anti-human Fc
Experimental: The equilibrium dissociation constant of binding of CD3 antibodies to human CD3e/g antigen (purchased from ACRO, catalog number CDG-H52W5) was determined by kinetic binding method using Biacore 8K (GE) system. Through the capture method, the carboxylated dextran surface of CM5 chip was first activated with NHS (N-hydroxysuccinimide) and EDC (1-(3-dimethylaminopropyl)-3-ethylcarbodiimide hydrochloride), and then added with an anti-human IgG (Fc) antibody, the free amino group of which could form an amide bond with the activated carboxyl group, thereby being fixed on the chip surface. The anti-human IgG (Fc) antibody could bind to the Fc end of CD3 antibodies to capture the antibodies, and then a series of concentrations of antigen were added to obtain the binding and dissociation curves of antibody and antigen, and the corresponding kinetic constants were calculated by Biacore Evaluation software, as shown in the table below.

Binder | Kd [nM] | koff [s⁻¹] | kon [M⁻¹ s⁻¹]
hAb007-21 (antibody, V domains shown, Humanized; constant regions not specified) VH: QVQLVQSGAEVKKPGASVKVSCKASGSTFTDNYIHWVRQAPGQRLEWIGWIYPGSVNIKYNEKFKDRVTITADTSASTAYMELSSLRSEDTAVYYCARDISRYYFDYWGQGTTVTVSS VL: DIVMTQSPDSLAVSLGERATINCKSSQSLLNSRTRKNYLAWYQQKPGQPPKLLIYWASTRESGVPDRFSGSGSGTDFTLTISSLQAEDVAVYYCKQSFILRTFGGGTKLEIK | 8.06 | 0.00377 | 468000
hAb007-23 (antibody, V domains shown, Humanized; constant regions not specified) VH: QVQLVQSGAEVKKPGASVKVSCKASGSTFTDNYIHWVRQAPGQRLEWIGWIYPGSVNIKYNEKFKDRVTITADTSASTAYMELSSLRSEDTAVYYCARDISRYYFDYWGQGTTVTVSS VL: DIVMTQSPDSLAVSLGERATMNCKSSQSLLNSRTRKNYLAWYQQKPGQPPKLLIYWASTRESGVPDRFSGSGSGTDFTLTISSLQAEDVAVYYCKQSFILRTFGGGTKLEIK | 6.59 | 0.0029 | 439000
hAb007-19 (antibody, V domains shown, Humanized; constant regions not specified) VH: QVQLVQSGAEVKKPGASVKVSCKASGSTFTDNYIHWVRQAPGQRLEWMGWIYPGSVNIKYNEKFKDRVTITRDTSASTAYMELSSLRSEDTAVYYCARDISRYYFDYWGQGTTVTVSS VL: DIVMTQSPDSLAVSLGERATMNCKSSQSLLNSRTRKNYLAWYQQKPGQPPKLLIYWASTRESGVPDRFSGSGSGTDFTLTISSLQAEDVAVYYCKQSFILRTFGGGTKLEIK | 9.32 | 0.00317 | 340000
hAb007-20 (antibody, V domains shown, Humanized; constant regions not specified) VH: QVQLVQSGAEVKKPGASVKVSCKASGSTFTDNYIHWVRQAPGQRLEWMGWIYPGSVNIKYNEKFKDRVTITRDTSASTAYMELSSLRSEDTAVYYCARDISRYYFDYWGQGTTVTVSS VL: DIVMTQSPDSLAVSLGERATMNCKSSQSLLNSRTRKNYLAWYQQKPGQPPKLLIYWASTRESGVPDRFTGSGSGTDFTLTISSLQAEDVAVYYCKQSFILRTFGGGTKLEIK | 11.1 | 0.00375 | 337000
hAb007-17 (antibody, V domains shown, Humanized; constant regions not specified) VH: QVQLVQSGAEVKKPGASVKVSCKASGSTFTDNYIHWVRQAPGQRLEWMGWIYPGSVNIKYNEKFKDRVTITRDTSASTAYMELSSLRSEDTAVYYCARDISRYYFDYWGQGTTVTVSS VL: DIVMTQSPDSLAVSLGERATINCKSSQSLLNSRTRKNYLAWYQQKPGQPPKLLIYWASTRESGVPDRFSGSGSGTDFTLTISSLQAEDVAVYYCKQSFILRTFGGGTKLEIK | 5.85 | 0.00225 | 385000
hAb007-18 (antibody, V domains shown, Humanized; constant regions not specified) VH: QVQLVQSGAEVKKPGASVKVSCKASGSTFTDNYIHWVRQAPGQRLEWMGWIYPGSVNIKYNEKFKDRVTITRDTSASTAYMELSSLRSEDTAVYYCARDISRYYFDYWGQGTTVTVSS VL: DIVMTQSPDSLAVSLGERATINCKSSQSLLNSRTRKNYLAWYQQKPGQPPKLLIYWASTRESGVPDRFTGSGSGTDFTLTISSLQAEDVAVYYCKQSFILRTFGGGTKLEIK | 6.01 | 0.00241 | 401000
hAb007-22 (antibody, V domains shown, Humanized; constant regions not specified) VH: QVQLVQSGAEVKKPGASVKVSCKASGSTFTDNYIHWVRQAPGQRLEWIGWIYPGSVNIKYNEKFKDRVTITADTSASTAYMELSSLRSEDTAVYYCARDISRYYFDYWGQGTTVTVSS VL: DIVMTQSPDSLAVSLGERATINCKSSQSLLNSRTRKNYLAWYQQKPGQPPKLLIYWASTRESGVPDRFTGSGSGTDFTLTISSLQAEDVAVYYCKQSFILRTFGGGTKLEIK | 13.3 | 0.00594 | 446000
hAb007-24 (antibody, V domains shown, Humanized; constant regions not specified) VH: QVQLVQSGAEVKKPGASVKVSCKASGSTFTDNYIHWVRQAPGQRLEWIGWIYPGSVNIKYNEKFKDRVTITADTSASTAYMELSSLRSEDTAVYYCARDISRYYFDYWGQGTTVTVSS VL: DIVMTQSPDSLAVSLGERATMNCKSSQSLLNSRTRKNYLAWYQQKPGQPPKLLIYWASTRESGVPDRFTGSGSGTDFTLTISSLQAEDVAVYYCKQSFILRTFGGGTKLEIK | 6.16 | 0.00258 | 419000
hAb008-19 (antibody, V domains shown, Humanized; constant regions not specified) VH: QVQLVQSGAEVKKPGASVKVSCKASGYTFTDYTVNWVRQAPGQRLEWMGYINPFNSYTKYNQKFKDRVTITRDTSASTAYMELSSLRSEDTAVYYCARSVSTYWGQGTTVTVSS VL: DVVMTQSPLSLPVTLGQPASISCKSSQSLLDSDGKTYLNWLLQRPGQSPRRLIQLVSKLNSGVPDRFSGSGSGTDFTLKISRVEAEDVGVFYCWQGTHFPRTFGGGTKLEIK | 26.1 | 0.00573 | 219000
hAb008-30 (antibody, V domains shown, Humanized; constant regions not specified) VH: QVQLVQSGAEVKKPGASVKVSCKASGYTFTDYTVNWVKQAPGQRLEWIGYINPFNSYTKYNQKFKDRATITADTSASTAYMELSSLRSEDTAVYFCANSVSTYWGQGTTVTVSS VL: DVVMTQSPLSLPVTLGQPASISCKSSQSLLDSDGKTYLNWLQQRPGQSPRRLIQLVSKLNSGVPDRFSGSGSGTDFTLKISRVEAEDVGVFYCWQGTHFPRTFGGGTKLEIK | 20.4 | 0.00522 | 256000
hAb008-24 (antibody, V domains shown, Humanized; constant regions not specified) VH: QVQLVQSGAEVKKPGASVKVSCKASGYTFTDYTVNWVRQAPGQRLEWIGYINPFNSYTKYNQKFKDRATITADTSASTAYMELSSLRSEDTAVYFCANSVSTYWGQGTTVTVSS VL: DVVMTQSPLSLPVTLGQPASISCKSSQSLLDSDGKTYLNWFQQRPGQSPRRLIYLVSKLNSGVPDRFSGSGSGTDFTLKISRVEAEDVGVYYCWQGTHFPRTFGGGTKLEIK | 21.5 | 0.00269 | 125000
hAb008-20 (antibody, V domains shown, Humanized; constant regions not specified) VH: QVQLVQSGAEVKKPGASVKVSCKASGYTFTDYTVNWVRQAPGQRLEWIGYINPFNSYTKYNQKFKDRVTITADTSASTAYMELSSLRSEDTAVYYCANSVSTYWGQGTTVTVSS VL: DVVMTQSPLSLPVTLGQPASISCKSSQSLLDSDGKTYLNWFQQRPGQSPRRLIYLVSKLNSGVPDRFSGSGSGTDFTLKISRVEAEDVGVYYCWQGTHFPRTFGGGTKLEIK | 14.5 | 0.00152 | 105000
hAb008-28 (antibody, V domains shown, Humanized; constant regions not specified) VH: QVQLVQSGAEVKKPGASVKVSCKASGYTFTDYTVNWVKQAPGQRLEWIGYINPFNSYTKYNQKFKDRATITADTSASTAYMELSSLRSEDTAVYFCANSVSTYWGQGTTVTVSS VL: DVVMTQSPLSLPVTLGQPASISCKSSQSLLDSDGKTYLNWFQQRPGQSPRRLIYLVSKLNSGVPDRFSGSGSGTDFTLKISRVEAEDVGVYYCWQGTHFPRTFGGGTKLEIK | 27.2 | 0.00441 | 162000
hAb008-23 (antibody, V domains shown, Humanized; constant regions not specified) VH: QVQLVQSGAEVKKPGASVKVSCKASGYTFTDYTVNWVRQAPGQRLEWIGYINPFNSYTKYNQKFKDRVTITADTSASTAYMELSSLRSEDTAVYYCANSVSTYWGQGTTVTVSS VL: DVVMTQSPLSLPVTLGQPASISCKSSQSLLDSDGKTYLNWLLQRPGQSPRRLIQLVSKLNSGVPDRFSGSGSGTDFTLKISRVEAEDVGVFYCWQGTHFPRTFGGGTKLEIK | 17.4 | 0.00487 | 280000
hAb008-22 (antibody, V domains shown, Humanized; constant regions not specified) VH: QVQLVQSGAEVKKPGASVKVSCKASGYTFTDYTVNWVRQAPGQRLEWIGYINPFNSYTKYNQKFKDRVTITADTSASTAYMELSSLRSEDTAVYYCANSVSTYWGQGTTVTVSS VL: DVVMTQSPLSLPVTLGQPASISCKSSQSLLDSDGKTYLNWLQQRPGQSPRRLIQLVSKLNSGVPDRFSGSGSGTDFTLKISRVEAEDVGVFYCWQGTHFPRTFGGGTKLEIK | 20.6 | 0.00588 | 285000
hAb008-25 (antibody, V domains shown, Humanized; constant regions not specified) VH: QVQLVQSGAEVKKPGASVKVSCKASGYTFTDYTVNWVRQAPGQRLEWIGYINPFNSYTKYNQKFKDRATITADTSASTAYMELSSLRSEDTAVYFCANSVSTYWGQGTTVTVSS VL: DVVMTQSPLSLPVTLGQPASISCKSSQSLLDSDGKTYLNWFQQRPGQSPRRLIQLVSKLNSGVPDRFSGSGSGTDFTLKISRVEAEDVGVFYCWQGTHFPRTFGGGTKLEIK | 36.8 | 0.00741 | 202000
hAb008-27 (antibody, V domains shown, Humanized; constant regions not specified) VH: QVQLVQSGAEVKKPGASVKVSCKASGYTFTDYTVNWVRQAPGQRLEWIGYINPFNSYTKYNQKFKDRATITADTSASTAYMELSSLRSEDTAVYFCANSVSTYWGQGTTVTVSS VL: DVVMTQSPLSLPVTLGQPASISCKSSQSLLDSDGKTYLNWLLQRPGQSPRRLIQLVSKLNSGVPDRFSGSGSGTDFTLKISRVEAEDVGVFYCWQGTHFPRTFGGGTKLEIK | 18 | 0.00475 | 264000
hAb008-31 (antibody, V domains shown, Humanized; constant regions not specified) VH: QVQLVQSGAEVKKPGASVKVSCKASGYTFTDYTVNWVKQAPGQRLEWIGYINPFNSYTKYNQKFKDRATITADTSASTAYMELSSLRSEDTAVYFCANSVSTYWGQGTTVTVSS VL: DVVMTQSPLSLPVTLGQPASISCKSSQSLLDSDGKTYLNWLLQRPGQSPRRLIQLVSKLNSGVPDRFSGSGSGTDFTLKISRVEAEDVGVFYCWQGTHFPRTFGGGTKLEIK | 15.1 | 0.00381 | 252000
hAb008-29 (antibody, V domains shown, Humanized; constant regions not specified) VH: QVQLVQSGAEVKKPGASVKVSCKASGYTFTDYTVNWVKQAPGQRLEWIGYINPFNSYTKYNQKFKDRATITADTSASTAYMELSSLRSEDTAVYFCANSVSTYWGQGTTVTVSS VL: DVVMTQSPLSLPVTLGQPASISCKSSQSLLDSDGKTYLNWFQQRPGQSPRRLIQLVSKLNSGVPDRFSGSGSGTDFTLKISRVEAEDVGVFYCWQGTHFPRTFGGGTKLEIK | 20.8 | 0.00378 | 182000
